Biological target: CeHsc70-Δ512 (lidless CeHsc70) (C. elegans), P09446
Sequence (P09446 1-512, stated change not applied): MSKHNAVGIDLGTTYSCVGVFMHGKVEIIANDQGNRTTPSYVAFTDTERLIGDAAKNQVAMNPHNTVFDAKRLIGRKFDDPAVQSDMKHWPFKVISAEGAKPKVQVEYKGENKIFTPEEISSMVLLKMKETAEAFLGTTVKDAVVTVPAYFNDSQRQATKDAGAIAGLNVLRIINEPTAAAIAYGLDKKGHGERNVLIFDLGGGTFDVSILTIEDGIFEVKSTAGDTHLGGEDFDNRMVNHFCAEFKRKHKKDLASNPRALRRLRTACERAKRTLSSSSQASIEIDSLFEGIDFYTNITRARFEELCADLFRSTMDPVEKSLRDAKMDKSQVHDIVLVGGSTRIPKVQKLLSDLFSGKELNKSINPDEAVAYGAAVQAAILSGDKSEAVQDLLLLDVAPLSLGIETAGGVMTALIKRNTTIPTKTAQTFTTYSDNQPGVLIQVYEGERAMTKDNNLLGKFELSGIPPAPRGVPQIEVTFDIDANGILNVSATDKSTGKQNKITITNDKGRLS

apparent KD of BAG-1 from titration of the steady-state ATPase activity, standard buffer, 25°C: 6.5 µM
B1: BAG-1 (C. elegans, unlabelled), O44739 1-210 (natural protein)
chain: MKVNVSCSSVQTTIDILEENQGEDESILTLGQLRDRIATDNDVDVETMKLLHRGKFLQGADDVSLSTLNFKENDKIIVMGGKNALVDDAGFKMLMQYEKHNLSNLQKAYDLNLRDVADLERGFLEKPKQVEMGKKLEKKVKYFNEEAERHLETLDGMNIITETTPENQAKRNREKRKTLVNGIQTLLNQNDALLRRLQEYQSVLNGDIPE
